Measured values published in patent publication US20110288011A1, “PEPTIDE THERAPEUTIC CONJUGATES AND USES THEREOF” (priority 2008, published 2011).

Tested on: ob/ob mice
Assay: Body weight of ob/ob mice treated with recombinant leptin
Assay type: in vivo
Settings: 0.1 mg/mouse or 0.25 mg/mouse daily
Procedure: As a control, we tested the ability of recombinant leptin to reduce body weight in ob/ob mice using either 0.1 mg/mouse or 0.25 mg/mouse daily.

B1: recombinant leptin: recombinant leptin used as a control in ob/ob mice (protein, UniProt P41160 22-167, looked up)
Leptin: VPIQKVQDDTKTLIKTIVTRINDISHTQSVSAKQRVTGLDFIPGLHPILSLSKMDQTLAVYQQVLTSLPSQNVLQIANDLENLRDLLHLLAFSKSCSLPQTSGLQKPESLDGVLEASLYSTEVVALSRLQGSLQDILQQLDVSPEC
body weight: reduce body weight in these mice in a dose-dependent manner
